The target of this assay is GFP-Cav3.1 pore mutant (human). Nature of the assay: FRET or BRET; live tsA-201 cells also expressing Kir2.1, exposed to high [K]o (50 mM); % change of the mKate:GFP ratio against time 0; the decrease was prevented by TTA-P2, mibefradil + Ni2+ or BAPTA-AM. Background: In BRET a luciferase serves as donor, and the signal depends on an acceptor being close.

For the substance “mKate-CaM (from UniProt P0DP23 1-149) (natural protein)”, the % change of FRET (mKate:GFP ratio) in high [K]o came out at 4.55%.
